B1: AXIN1 peptide 237-252 (Axin-1), 16-mer library wild type / PP2A B56 (PPP2R5A B56 domain, residues 1-486) (parent complex)
chain 1: YLPTLNEDEEWKADQD
chain 2: not shown
B2: AMOTL2 peptide 66-81 (Angiomotin-like protein 2), 16-mer library wild type / TNKS ANK (TNKS 12 ANK repeats, residues 174-649) (parent complex)
chain 1: LQQATRQEPQGQEHQG
chain 2: TGVPAVSGALRELLEACRNGDVSRVKRLVDAANVNAKDMAGRKSSPLHFAAGFGRKDVVEHLLQMGANVHARDDGGLIPLHNACSFGHAEVVSLLLCQGADPNARDNWNYTPLHEAAIKGKIDVCIVLLQHGADPNIRNTDGKSALDLADPSAKAVLTGEYKKDELLEAARSGNEEKLMALLTPLNVNCHASDGRKSTPLHLAAGYNRVRIVQLLLQHGADVHAKDKGGLVPLHNACSYGHYEVTELLLKHGACVNAMDLWQFTPLHEAASKNRVEVCSLLLSHGADPTLVNCHGKSAVDMAPTPELRERLTYEFKGHSLLQAAREADLAKVKKTLALEIINFKQPQSHETALHCAVASLHPKRKQVTELLLRKGANVNEKNKDFMTPLHVAAERAHNDVMEVLHKHGAKMNALDTLGQTALHRAALAGHLQTCRLLLSYGSDPSIISLQGFTAAQMGNEAVQQILSESTPIRTSD
B3: TPTE2 peptide 92-107 (Phosphatidylinositol 3,4,5-trisphosphate 3-phosphatase TPTE2), 16-mer library wild type / TLN1 PTB (TLN1 Phosphotyrosine-binding (PTB) domain, residues 309-401) (parent complex)
chain 1: LADLIFTDSKLYIPLE
chain 2: GVSFFLVKEKMKGKNKLVPRLLGITKECVMRVDEKTKEVIQEWNLTNIKRWAASPKSFTLDFGDYQDGYYSVQTTEGEQIAQLIAGYIDIILK

Variants of: B1
Assay: proteomic peptide phage display deep mutational scan (ProP-PD DMS): M13 P8 16-mer library selected against immobilised GST-tagged bait for four days (rounds), NGS of the eluted pools per day and pseudo-replica; bait immobilised on MaxiSorp plates (10 µg), library pre-cleared on GST, 2 h binding at 4 °C, five washes; one round per day, days 1-4; value from days 2 and 3
chain 1 P3T was tested, and the screen value was 0.000276 average fractional NGS count over selection days 2 and 3 (reads of this peptide / all reads for the bait, averaged over …. chain 1 D14N was tested, and the screen value was 0.00275 average fractional NGS count over selection days 2 and 3 (reads of this peptide / all reads for the bait, averaged over …. chain 1 D14V was tested, and the screen value was 0.00647 average fractional NGS count over selection days 2 and 3 (reads of this peptide / all reads for the bait, averaged over …. In the case of chain 1 D14I, the screen value is reported as 0.000947 average fractional NGS count over selection days 2 and 3 (reads of this peptide / all reads for the bait, averaged over …. With chain 1 W11F the screen value was 0.0013 average fractional NGS count over selection days 2 and 3 (reads of this peptide / all reads for the bait, averaged over …. With chain 1 K12R the screen value was 0.00196 average fractional NGS count over selection days 2 and 3 (reads of this peptide / all reads for the bait, averaged over …. With chain 1 A13R the screen value was 0.000134 average fractional NGS count over selection days 2 and 3 (reads of this peptide / all reads for the bait, averaged over …. For chain 1 A13N, the screen value was 0.000152 average fractional NGS count over selection days 2 and 3 (reads of this peptide / all reads for the bait, averaged over …. For chain 1 E10T, the screen value was 0.00217 average fractional NGS count over selection days 2 and 3 (reads of this peptide / all reads for the bait, averaged over …. In the case of chain 1 E9T, the screen value is reported as 0.00244 average fractional NGS count over selection days 2 and 3 (reads of this peptide / all reads for the bait, averaged over …. In the case of chain 1 E9R, the screen value is reported as 0.000957 average fractional NGS count over selection days 2 and 3 (reads of this peptide / all reads for the bait, averaged over ….

Variants of: B2
Assay: as above
For chain 1 E8G, the screen value was 0.000387 average fractional NGS count over selection days 2 and 3 (reads of this peptide / all reads for the bait, averaged over …. For chain 1 A4L, the screen value was 0.00111 average fractional NGS count over selection days 2 and 3 (reads of this peptide / all reads for the bait, averaged over …. For chain 1 A4P, the screen value was 0.00156 average fractional NGS count over selection days 2 and 3 (reads of this peptide / all reads for the bait, averaged over …. In the case of chain 1 H14K, the screen value is reported as 0.00043 average fractional NGS count over selection days 2 and 3 (reads of this peptide / all reads for the bait, averaged over …. For chain 1 E13N, the screen value was 0.000173 average fractional NGS count over selection days 2 and 3 (reads of this peptide / all reads for the bait, averaged over …. chain 1 L1A was tested, and the screen value was 0.00444 average fractional NGS count over selection days 2 and 3 (reads of this peptide / all reads for the bait, averaged over …. chain 1 Q15F was tested, and the screen value was 0.000668 average fractional NGS count over selection days 2 and 3 (reads of this peptide / all reads for the bait, averaged over ….

Variants of: B3
Assay: as above
For chain 1 T7M, the screen value was 0.000146 average fractional NGS count over selection days 2 and 3 (reads of this peptide / all reads for the bait, averaged over …. chain 1 T7W was tested, and the screen value was 0.000447 average fractional NGS count over selection days 2 and 3 (reads of this peptide / all reads for the bait, averaged over …. With chain 1 T7N the screen value was 0.000232 average fractional NGS count over selection days 2 and 3 (reads of this peptide / all reads for the bait, averaged over …. In the case of chain 1 T7Q, the screen value is reported as 0.000521 average fractional NGS count over selection days 2 and 3 (reads of this peptide / all reads for the bait, averaged over …. In the case of chain 1 T7Y, the screen value is reported as 0.000282 average fractional NGS count over selection days 2 and 3 (reads of this peptide / all reads for the bait, averaged over …. For chain 1 T7H, the screen value was 0.000516 average fractional NGS count over selection days 2 and 3 (reads of this peptide / all reads for the bait, averaged over …. chain 1 T7V was tested, and the screen value was 0.000833 average fractional NGS count over selection days 2 and 3 (reads of this peptide / all reads for the bait, averaged over …. chain 1 E16I was tested, and the screen value was 0.000286 average fractional NGS count over selection days 2 and 3 (reads of this peptide / all reads for the bait, averaged over …. For chain 1 E16F, the screen value was 0.000466 average fractional NGS count over selection days 2 and 3 (reads of this peptide / all reads for the bait, averaged over …. With chain 1 E16D the screen value was 0.00467 average fractional NGS count over selection days 2 and 3 (reads of this peptide / all reads for the bait, averaged over …. For chain 1 E16W, the screen value was 0.00358 average fractional NGS count over selection days 2 and 3 (reads of this peptide / all reads for the bait, averaged over …. For chain 1 E16K, the screen value was 0.000641 average fractional NGS count over selection days 2 and 3 (reads of this peptide / all reads for the bait, averaged over …. For chain 1 E16H, the screen value was 0.00501 average fractional NGS count over selection days 2 and 3 (reads of this peptide / all reads for the bait, averaged over …. chain 1 E16Y was tested, and the screen value was 0.00177 average fractional NGS count over selection days 2 and 3 (reads of this peptide / all reads for the bait, averaged over …. For chain 1 E16P, the screen value was 0.00113 average fractional NGS count over selection days 2 and 3 (reads of this peptide / all reads for the bait, averaged over …. With chain 1 E16N the screen value was 0.00152 average fractional NGS count over selection days 2 and 3 (reads of this peptide / all reads for the bait, averaged over …. In the case of chain 1 E16A, the screen value is reported as 0.00143 average fractional NGS count over selection days 2 and 3 (reads of this peptide / all reads for the bait, averaged over …. With chain 1 E16V the screen value was 0.0105 average fractional NGS count over selection days 2 and 3 (reads of this peptide / all reads for the bait, averaged over …. For chain 1 E16T, the screen value was 0.00391 average fractional NGS count over selection days 2 and 3 (reads of this peptide / all reads for the bait, averaged over …. For chain 1 E16G, the screen value was 0.000982 average fractional NGS count over selection days 2 and 3 (reads of this peptide / all reads for the bait, averaged over …. chain 1 E16S was tested, and the screen value was 0.000917 average fractional NGS count over selection days 2 and 3 (reads of this peptide / all reads for the bait, averaged over …. chain 1 E16Q was tested, and the screen value was 0.000507 average fractional NGS count over selection days 2 and 3 (reads of this peptide / all reads for the bait, averaged over …. For chain 1 E16L, the screen value was 0.000229 average fractional NGS count over selection days 2 and 3 (reads of this peptide / all reads for the bait, averaged over …. With chain 1 E16M the screen value was 0.0125 average fractional NGS count over selection days 2 and 3 (reads of this peptide / all reads for the bait, averaged over …. In the case of chain 1 I5L, the screen value is reported as 0.000706 average fractional NGS count over selection days 2 and 3 (reads of this peptide / all reads for the bait, averaged over …. With chain 1 I5Q the screen value was 0.000996 average fractional NGS count over selection days 2 and 3 (reads of this peptide / all reads for the bait, averaged over …. With chain 1 I5W the screen value was 0.00126 average fractional NGS count over selection days 2 and 3 (reads of this peptide / all reads for the bait, averaged over …. In the case of chain 1 I5R, the screen value is reported as 0.0019 average fractional NGS count over selection days 2 and 3 (reads of this peptide / all reads for the bait, averaged over …. chain 1 I5K was tested, and the screen value was 0.000454 average fractional NGS count over selection days 2 and 3 (reads of this peptide / all reads for the bait, averaged over …. chain 1 I5H was tested, and the screen value was 0.000463 average fractional NGS count over selection days 2 and 3 (reads of this peptide / all reads for the bait, averaged over …. chain 1 I5T was tested, and the screen value was 0.000326 average fractional NGS count over selection days 2 and 3 (reads of this peptide / all reads for the bait, averaged over …. chain 1 I5V was tested, and the screen value was 0.000758 average fractional NGS count over selection days 2 and 3 (reads of this peptide / all reads for the bait, averaged over …. For chain 1 I5M, the screen value was 0.000604 average fractional NGS count over selection days 2 and 3 (reads of this peptide / all reads for the bait, averaged over …. In the case of chain 1 I5Y, the screen value is reported as 0.00125 average fractional NGS count over selection days 2 and 3 (reads of this peptide / all reads for the bait, averaged over …. chain 1 I5D was tested, and the screen value was 0.0016 average fractional NGS count over selection days 2 and 3 (reads of this peptide / all reads for the bait, averaged over …. For chain 1 I5E, the screen value was 0.000204 average fractional NGS count over selection days 2 and 3 (reads of this peptide / all reads for the bait, averaged over …. chain 1 I5G was tested, and the screen value was 0.000313 average fractional NGS count over selection days 2 and 3 (reads of this peptide / all reads for the bait, averaged over …. In the case of chain 1 I5N, the screen value is reported as 0.00116 average fractional NGS count over selection days 2 and 3 (reads of this peptide / all reads for the bait, averaged over …. In the case of chain 1 I5F, the screen value is reported as 0.000696 average fractional NGS count over selection days 2 and 3 (reads of this peptide / all reads for the bait, averaged over …. With chain 1 I5A the screen value was 0.00216 average fractional NGS count over selection days 2 and 3 (reads of this peptide / all reads for the bait, averaged over …. chain 1 I5S was tested, and the screen value was 0.000525 average fractional NGS count over selection days 2 and 3 (reads of this peptide / all reads for the bait, averaged over …. With chain 1 I5P the screen value was 0.000122 average fractional NGS count over selection days 2 and 3 (reads of this peptide / all reads for the bait, averaged over …. chain 1 D8E was tested, and the screen value was 0.00151 average fractional NGS count over selection days 2 and 3 (reads of this peptide / all reads for the bait, averaged over …. chain 1 D8P was tested, and the screen value was 0.000129 average fractional NGS count over selection days 2 and 3 (reads of this peptide / all reads for the bait, averaged over …. In the case of chain 1 D8N, the screen value is reported as 0.00152 average fractional NGS count over selection days 2 and 3 (reads of this peptide / all reads for the bait, averaged over …. chain 1 D8Q was tested, and the screen value was 0.000205 average fractional NGS count over selection days 2 and 3 (reads of this peptide / all reads for the bait, averaged over …. For chain 1 D8A, the screen value was 0.000152 average fractional NGS count over selection days 2 and 3 (reads of this peptide / all reads for the bait, averaged over …. For chain 1 D8T, the screen value was 0.000557 average fractional NGS count over selection days 2 and 3 (reads of this peptide / all reads for the bait, averaged over …. With chain 1 D8Y the screen value was 0.000841 average fractional NGS count over selection days 2 and 3 (reads of this peptide / all reads for the bait, averaged over …. For chain 1 L15Y, the screen value was 0.00117 average fractional NGS count over selection days 2 and 3 (reads of this peptide / all reads for the bait, averaged over …. For chain 1 L15S, the screen value was 0.000436 average fractional NGS count over selection days 2 and 3 (reads of this peptide / all reads for the bait, averaged over …. With chain 1 L15N the screen value was 0.000216 average fractional NGS count over selection days 2 and 3 (reads of this peptide / all reads for the bait, averaged over …. chain 1 L15A was tested, and the screen value was 0.000297 average fractional NGS count over selection days 2 and 3 (reads of this peptide / all reads for the bait, averaged over …. In the case of chain 1 L15I, the screen value is reported as 0.00147 average fractional NGS count over selection days 2 and 3 (reads of this peptide / all reads for the bait, averaged over …. In the case of chain 1 L15W, the screen value is reported as 0.000732 average fractional NGS count over selection days 2 and 3 (reads of this peptide / all reads for the bait, averaged over …. With chain 1 L15H the screen value was 0.00102 average fractional NGS count over selection days 2 and 3 (reads of this peptide / all reads for the bait, averaged over …. In the case of chain 1 L15Q, the screen value is reported as 0.00188 average fractional NGS count over selection days 2 and 3 (reads of this peptide / all reads for the bait, averaged over ….
